Reference: the RNAGym collection of RNA variant scans (doi:10.1073/pnas.2313332121)
Variants at the floor of the assay were thinned out.

B1: TPR 5TU (parent)
chain: GGAUCUUCUCGAUCUAACAAAAAAGACAAAUCUGCCACAAAGCUUGAGAGCAUCUUCGGAUGCAGAGGCGGCAGCCUUCGGUGGCGCGAUAGCGCCAACGUUCUCAACUAUGACACGCAAAACGCGUGCUCCGUUGAAUGGAGUUUAUCAUG

Variants of: B1
Assay: polymerase ribozyme fitness, log enrichment relative to wild type (log ratio); higher = more active; in vitro selection for triplet polymerase activity
Procedure, shortened: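 A heterodimeric triplet polymerase ribozyme had each of its subunits mutagenized by PCR into a library, which was transcribed. One round of in vitro selection, done in triplicate, annealed each library with a biotinylated primer, its partner subunit and triplets, then incubated it frozen at −7 °C before gel excision of extended constructs, streptavidin-bead capture and RT-PCR. Fitness is the logarithm of genotype enrichment relative to wild-type enrichment, based on Illumina sequencing of inputs and outputs and inverse-variance-weighted replicate averages. A base-2 logarithm is used, and genotypes were kept only with ≥10 input reads and ≥1 read per output.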

| Variant | polymerase ribozyme fitness (log ratio) |
| --- | --- |
| GGAUCUUCUCGAUCUAACAUAAAAGACAAAUCUGCCACAUAGCUUGAGAGCAUCUACGGAUGCAGAGGCGGCAGCCUUCGGUGGCGCGAUAGCGCAAACGUUCUCAACUAUGACACGCAAAACGCGUGCUCCGUUGAAUGCAGUUUAUCAUG | -2.73 |
| GGAUCUUCUCGAUCUAACAUAAAAGACAAAUCUGCCACAAUGCUUGAGAGCAUCAUCGGAUGCAGUGGCGGCAGCCUUCGGUGACGCGAUAGCGCCAACGUUCUCAACUAUGACAAGCAAAACGCGUGCUCCGUUGAAUGGAGUUUAUCAUG | ≤ -4.2 |
| GGAUCUUCUCGAUCUAACAUAAAAGACAAAUCUGCCACAAAGCUUGAGAGCUUCUUCGGAUGCAGAGGCGGCAGCCUUCGGUGGCGCGCUAGCGCCAACGUUCUCAACUAUGACACGCAAAACGCGUGCUCCGUUGAAUGGAGUUUAUCAUG | -3.39 |
| GGAUCUUCUCGAUCUAACAUAAAAGACAAAUCUGCCACAAAGCUUGAGGGCAUCUUCGGAUGCAGAGGCGGCAGCCUUCGGUGGUGCGAUAGCGCCAACGUUCUCAACUGUGACACGCAAAACGCGUGCUCCGUUGAAUGGAGUUUAACAUG | ≤ -4.2 |
| GGAUCUUCUCGAUCUAACAUAAAAGACAAAUCUGCCACAAAGCUUGAGCGCAUCUUCCGAUGCAGAGGCGGCAGCCUUCGGUGGCGUGAUAGCGCCAACGUUCUCAACUAUGACACGCAAAACGCGUGCUCCGUUGAAUGGAGUUUAUCAUG | ≤ -4.2 |
| GGAUCUUCUCGAUCUAACAUAAAAGACAAAUCUGCCACAAAGCUUGAGAGCCUCUUCGGAUGCAGAGGCGGCAGCCUUCGGUGGCGCGAUAGCGCCAACGUUCUCAACUAUGACACGCAAAACGCGUGCUCCGUUGAAUGGAGUUUAUCAUG | -2.87 |
| GGAUCUUCUCGAUCUAACAUAAAAGACAAAUCUGCCACAAAGCUUGAGAGCCUUUUCGGAUGCAGAGGCGGCAGCCUUCGGUGGCGCUAUAGCGCCAACGUUCUCAUCUAUGACAAGCAAAACGCGUGCUCCGUUGAAUGGAGUUUAUCAUG | ≤ -4.2 |
| GGAUCUUCUCGAUCUAACAUAAAAGACAAAUCUGCCACAAAGCUUGUGAGCAUCUUCGGAUGCAGAGGCGGCAGCCUUCGGUGGCGCGUUAGCGCUAACGUUCUCAACUAUGACACGCAAAACGCGUUCUCCGUUGAAUGGAGUUUAUCAUG | ≤ -4.2 |
| GGAUCUUCUCGAUCUAACAUAAAAGACAAUUCUGCCACAAAGCUUGAGAGCAUCUUCGGAUGCAGAGGCGGCAGCUUUCGGUGGCGCGGUCGCGCCAACGUUCUCAACUAUGACACGCAAAGCGCGUGCUCCGGUGAAUGGAGUUUAUCAUG | ≤ -4.2 |
| GGAUCUUCUCGAUCUAACAUAAAAGACAAUUCUGCCUCAAAGCUUGAGAGGAUCUUCGGAUGCAGAGGCGGCAGCCUUCGGUGGCGCGAUAGUGAGAACGUUCUCAACUAUGACAGGCAAAACGCGUGCUCCGUUGAAUGGAGUUUAUCAUG | ≤ -4.2 |
| GGAUCUUCUCGAUCUAACAUAAAAGACAAAUCUGCCACAAAGCUUGAGAGCAUCUUCGGAUGCAGAGGCGGCAGCCUUCGGUGGCGCGAUAGCGCCUACGUUCUCAACUAUGACACGCAAAACGCGUGCUCCGUUGAAUGGAGUUUAUCAUG | -2.04 |
| GGAUCUUCUCGAUCUAACAUAAAAGACAAAUCUGCCACCAAGCUUGAGAGCAUCUUCGGAUGCAGAGGCGGCAGCCUUCGGUGGCGCGAUAGCGCCAACGUUCUCAACUAUGACACGCAAAACGCGUGCUCCGUUGAAUGGAGUUUAUCAUG | -3.84 |
| GGAUCUUCUCGAUCUAACAUAAAAGACAAAUCUGCCACCAAGCUUGAAAGCAUCUUCGGAUGCAGAGGCGGCAGCCUUCGGUGGCGCGAUAGCACCAACGUUCUCAACUAUGACACGCAAAACGCGUGCUCCGUUGAAUGGAGUUUAUCAUG | ≤ -4.2 |
| GGAUCUUCUCGAUCUAACAUAAAAGACAAAUCUGCCACAAAGCUUGAGGGCAUCUUCGGAUGCAGCGGCGGCUGCCUUUGGUGGCGCGAUAGCGCCAACGUUCUCUCCUAUGACACGCAAAACGCGUGCUCCGUUGAAUGGAGUUUAUCAUG | ≤ -4.2 |
| GGAUCUUCUCGAUCUAACAUAAAAGACAAAUCUGCCACAUAGCUUGAGAGCAUCUUCGGAUGCAGAGGAGGCAGCCUUCGGUGGCGCGAUAGCGCCAACGUUCUCAACUAUGACACGCAAAACGCGUGCUCCGUUGAAUGGAGUUUAUCAUG | -2.77 |
| GGAUCUUCUCGAUCUAACAUAAAAGACAAAUCUGCCACAUAGCUUGAGCGCAUCUUCGGAUGCAGAGGCGGCAGCCUUCGGUGGCGCGAUAGCACCAAAGUUCUCAACUAUGACACGCAAAACGCGUGCUCCGUUGAAUGGAAUUUAUCAUG | ≤ -4.2 |
| GGAUCUUCUCGAUCUAACAUAAAAGACAAAUCUGCCACAAUGCUUGAGAGCAUCUUCGGAUGCAGAGGCGGCAGCCUUCGGUUGCGCGCUAGCGCGAACGUUCUCAACUAUGACACGCAAAACGCGUGCUCCGUUGAAUGGAGUUUAUCUUG | -2.06 |
| GGAUCUUCUCGAUCUAACAUAAAAGACAUAUCUGCCACAAAGCUUGAGAGCAUCAUCGGAUGCAGCGGCGGCAGCCUUCGGUGGCGCGAUAGCGCCAACGUUCUCUACUAUGACACGCAAAACGCGUGCUCCGUUGAUUGGAGUUUAUCAUG | ≤ -4.2 |
| GGAUCUUCUCGAUCUAACAUAAAAGACAAAUCUGCCACAAAGCUUGAGAGCAUCUUCGGAUGCAGAGGCGGCAGCCUUCGGUGGCGCGUUAGCGCCAACGUUCUCAACUAUGACACGCAAAACGCGUGCUCCGUUGAAUGGAGUUUAUCAUG | -2.12 |
